Laboratory results: US20030148343

Test system: RSG1.2 peptide (synthetic)
Assay: FP
Conditions: about fifty fold greater RNA concentration than RRE1 required for similar polarization; 150 mM KCl, 5 mM MgCl2

Question: Which fold-higher RNA concentration than RRE1 for similar polarization does the source give for “GGCUGGUAUGGGCGCAGCGUCAAUGACGCUGCGCCCAGGCCAGCC [RRE2 hairpin]” here?
Answer: 50 fold
